From the supplement of paper PMC7877785 come the findings set out here.

The series can be described thus: self-splicing fitness, log relative to wild type (ln ratio); higher = more splicing; Tetrahymena group I intron in knt gene, E. coli kanamycin selection, DiMSum; sequences stand for … in CUCUCU…GGAGGGAAAAGUUAUCAGGCAUGCACCUGGUAGCUAGUCUUUAAACCAAUAGAUUGCAUCGGUUUAAAAGGCAAGACCGUCAAAUUGCGGGAAAGGGGUCAACAGCCGUUCAGUACCAAGUCUCAGGGGAAACUUUGAGAUGGCCUUGCAAAGGGUAUGGUAAUAAGCUGACGGACAUGGUCCUAACCACGCAGCCAAGUCCUAAGUCAACAGAUCUUCUGUUGAUAUGGAUGCAGUUCACAGACUAAAUGUCGGUCGGGGAAGAUGUAUUCUUCUCAUAAGAUAUAGUCGGACCUCUCCUUAAUGGGAGCUAGCGGAUGAAGUGAUGCAACACUGGAGCCGCUGGGAACUAAUUUGUAUGCGAAAGUAUAUUGAUUAGUUUUGGAGUACUCGUGGUCG
In short, it runs like this: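 Colonies from six replicate transformations of E. coli BL21(DE3) were pooled and amplicon-sequenced on an Illumina HiSeq 2500. The library placed an intron with all eight P1ex-region nucleotides randomised inside the knt kanamycin-resistance gene on pET-22b(+), and cells grew overnight at 37°C or 30°C on LB agar with or without 25 μg/mL kanamycin (plus 100 μg/mL carbenicillin, 50 μM IPTG, 0.2% rhamnose). Fitness is the DiMSum error-weighted combination of wild-type-normalised replicate fold changes, kanamycin versus none.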

± gives the uncertainty stated by the source.

As for CUAAAGCAAUAUUACGAUGA, the “self-splicing fitness (ln)” value (30 °C) is -2.57 ± 0.11 and the “self-splicing fitness (ln)” value (37 °C) is -0.323 ± 0.1.

For UCCAAGCAAUAUUACGAUGG, the “self-splicing fitness (ln)” value runs as follows: (30 °C) -1.01 ± 0.059; (37 °C) 0.16 ± 0.083.

For GAGGAGCAAUAUUACGGGUC, the “self-splicing fitness (ln)” value runs as follows: (30 °C) -2.98 ± 0.17; (37 °C) -3.24 ± 0.32.

CCCCAGCAAUAUUACGCGUU: the “self-splicing fitness (ln)” value is, setting by setting: (30 °C) -4.16 ± 0.17; (37 °C) -2.57 ± 0.19.

Take GCCAAGCAAUAUUACGGGCA: the “self-splicing fitness (ln)” value by setting is: (30 °C) -2.12 ± 0.14; (37 °C) -0.482 ± 0.12.

CACUAGCAAUAUUACGUGGC: the “self-splicing fitness (ln)” value reads like this: (30 °C) -3.89 ± 0.23; (37 °C) -3.28 ± 0.2.

On to UAACAGCAAUAUUACGCUCG, for which the “self-splicing fitness (ln)” value (30 °C) was -0.803 ± 0.096 and the “self-splicing fitness (ln)” value (37 °C) is -0.212 ± 0.098.

Turning to UACAAGCAAUAUUACGUGUU, the “self-splicing fitness (ln)” value is, setting by setting: (30 °C) -2.85 ± 0.081; (37 °C) -1.58 ± 0.11.

For UUAGAGCAAUAUUACGUCUG, the “self-splicing fitness (ln)” value (30 °C) is -0.606 ± 0.11 and the “self-splicing fitness (ln)” value (37 °C) is -0.672 ± 0.12.

For the sequence UUACAGCAAUAUUACGACUU, the “self-splicing fitness (ln)” value is, setting by setting: (30 °C) -1.06 ± 0.11; (37 °C) -0.932 ± 0.11.

Consider UGCAAGCAAUAUUACGGGGU, for which the “self-splicing fitness (ln)” value (30 °C) was -3.13 ± 0.15 and the “self-splicing fitness (ln)” value (37 °C) is -2.75 ± 0.14.

As to UGAUAGCAAUAUUACGAAAG, the “self-splicing fitness (ln)” value runs as follows: (30 °C) -3 ± 0.14; (37 °C) -1.67 ± 0.15.

On to CCAUAGCAAUAUUACGGCGC, for which the “self-splicing fitness (ln)” value reads like this: (30 °C) -1.25 ± 0.19; (37 °C) -2.07 ± 0.3.

For the sequence CCGAAGCAAUAUUACGACUC, the “self-splicing fitness (ln)” value (30 °C) is -3.36 ± 0.32.

As for UUCAAGCAAUAUUACGCAGU, the “self-splicing fitness (ln)” value (30 °C) is -3.44 ± 0.27 and the “self-splicing fitness (ln)” value (37 °C) is -3.62 ± 0.42.

Regarding UUUUAGCAAUAUUACGAGAU, the “self-splicing fitness (ln)” value (37 °C) is -1.25 ± 0.4.

Take CAUUAGCAAUAUUACGAGCU: the “self-splicing fitness (ln)” value is -2.57 ± 0.33 (30 °C) and -2.7 ± 0.44 (37 °C).

As to UCCGAGCAAUAUUACGGUCA, the “self-splicing fitness (ln)” value runs as follows: (30 °C) -0.946 ± 0.067; (37 °C) -0.671 ± 0.057.

On to GGUAAGCAAUAUUACGAUGU, for which the “self-splicing fitness (ln)” value (30 °C) was -1.2 ± 0.061 and the “self-splicing fitness (ln)” value (37 °C) was -0.805 ± 0.074.

With GCCCAGCAAUAUUACGUUGU, the “self-splicing fitness (ln)” value (30 °C) was -0.273 ± 0.044 and the “self-splicing fitness (ln)” value (37 °C) came to 0.021 ± 0.056.

On to UUGCAGCAAUAUUACGUGUC, for which the “self-splicing fitness (ln)” value is, setting by setting: (30 °C) -3.3 ± 0.17; (37 °C) -3.15 ± 0.24.

Regarding CCAAAGCAAUAUUACGAGUC, the “self-splicing fitness (ln)” value runs as follows: (30 °C) -3.73 ± 0.2; (37 °C) -2.04 ± 0.19.

Turning to AGCGAGCAAUAUUACGGAGU, the “self-splicing fitness (ln)” value reads like this: (30 °C) -3.99 ± 0.28; (37 °C) -3.15 ± 0.3.

Consider AAGUAGCAAUAUUACGGAGU, for which the “self-splicing fitness (ln)” value is -2.54 ± 0.2 (30 °C) and -1.9 ± 0.22 (37 °C).

Consider UCUCAGCAAUAUUACGUGGC, for which the “self-splicing fitness (ln)” value (30 °C) was -3.61 ± 0.31 and the “self-splicing fitness (ln)” value (37 °C) is -2.55 ± 0.28.

For CCCCAGCAAUAUUACGUACG, the “self-splicing fitness (ln)” value was -3.95 ± 0.26 (30 °C) and -1.89 ± 0.17 (37 °C).

For the sequence CUCGAGCAAUAUUACGGGGU, the “self-splicing fitness (ln)” value was -3.46 ± 0.18 (30 °C) and -2.54 ± 0.22 (37 °C).

On to GAUUAGCAAUAUUACGCUGU, for which the “self-splicing fitness (ln)” value is -2.84 ± 0.28 (30 °C) and -1.74 ± 0.31 (37 °C).

As for GCACAGCAAUAUUACGCUGA, the “self-splicing fitness (ln)” value by setting is: (30 °C) -2.36 ± 0.13; (37 °C) -0.362 ± 0.088.

With AUUGAGCAAUAUUACGCCAU, the “self-splicing fitness (ln)” value runs as follows: (30 °C) -3.54 ± 0.24; (37 °C) -1.69 ± 0.19.

With CUACAGCAAUAUUACGGAGC, the “self-splicing fitness (ln)” value (30 °C) is -3.83 ± 0.14 and the “self-splicing fitness (ln)” value (37 °C) was -3.14 ± 0.17.

For the sequence CACCAGCAAUAUUACGUGAU, the “self-splicing fitness (ln)” value runs as follows: (30 °C) -3.47 ± 0.12; (37 °C) -3 ± 0.19.

Turning to CCGCAGCAAUAUUACGUGGU, the “self-splicing fitness (ln)” value was -3.29 ± 0.13 (30 °C) and -2.25 ± 0.13 (37 °C).

AUGGAGCAAUAUUACGGAGU: the “self-splicing fitness (ln)” value (37 °C) is -2.34 ± 0.27.

Take CUUAAGCAAUAUUACGCCUG: the “self-splicing fitness (ln)” value is, setting by setting: (30 °C) -2.06 ± 0.1; (37 °C) -0.858 ± 0.089.

Regarding CUUGAGCAAUAUUACGACGG, the “self-splicing fitness (ln)” value is -1.97 ± 0.2 (30 °C) and -1.52 ± 0.26 (37 °C).

Consider AAAUAGCAAUAUUACGCCAU, for which the “self-splicing fitness (ln)” value (30 °C) is -3.75 ± 0.25 and the “self-splicing fitness (ln)” value (37 °C) was -2.36 ± 0.24.

For the sequence GUUAAGCAAUAUUACGCACG, the “self-splicing fitness (ln)” value is -0.281 ± 0.18 (30 °C) and -0.714 ± 0.18 (37 °C).
